Experimental data reported in US20140315817A1.

Biological target: FLAG-tagged, single-chain human FcRn (human) (UniProt P61769)
Experiment: ELISA at pH 5.5, HSA variant coated, FLAG-tagged single-chain FcRn titrated; column '~Kd at pH 5.5', rank 13; the sheet gives the mutation of HSA-18 as V424I

FLAG-tagged, single-chain human FcRn (human), sequence (P61769 other isoform, or with tags, fused parts or gaps limits assumed): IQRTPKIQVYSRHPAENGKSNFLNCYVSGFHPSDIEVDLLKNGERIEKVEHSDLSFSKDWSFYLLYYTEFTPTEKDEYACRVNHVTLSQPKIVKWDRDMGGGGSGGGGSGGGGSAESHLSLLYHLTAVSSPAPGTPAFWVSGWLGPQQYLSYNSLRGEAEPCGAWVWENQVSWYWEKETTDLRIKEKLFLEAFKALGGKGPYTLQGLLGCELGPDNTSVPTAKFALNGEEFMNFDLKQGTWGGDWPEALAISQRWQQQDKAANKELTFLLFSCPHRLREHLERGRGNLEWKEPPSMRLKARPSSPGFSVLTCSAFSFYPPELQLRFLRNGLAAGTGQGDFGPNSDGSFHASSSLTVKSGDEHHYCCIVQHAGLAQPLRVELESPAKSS

## hsa-18: full length HSA V241I (from UniProt P02768 25-609)
  Kd: > 0.1 µM
